Measured values as given in the supplement of paper PMC9233669.
Fewer inactive variants are shown than the library holds.

Tests used:
biotinyl-Val-oxazolone = experiment: self-aminoacylation, catalytic enhancement (BVO) (fold over background); higher = more active; k-Seq, kA / k0A0; sequences stand for … in GGGAAUGGAUCCACAUCUACGAAUUC…UUCACUGCAGACUUGACGAAGCUG
Method in brief: (§1)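 Working in 50 μL HEPES/NaCl/KCl/MgCl2/CaCl2 buffer with 5% acetonitrile at pH 6.9–7.0, mutagenized RNA pools (0.43 μM; 21-nt variable region) were reacted with 2–1250 μM of each biotinyl-aminoacyl-oxazolone for 90 minutes at room temperature. Streptavidin capture followed, with quantification by triplicate qPCR and Illumina sequencing. Catalytic enhancement is reported as median kA over the uncatalyzed rate, the low-activity peak of a bimodal Gaussian fit to the data.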

biotinyl-Ile-oxazolone = experiment: self-aminoacylation, catalytic enhancement (BIO) (fold over background); higher = more active; k-Seq, kA / k0A0; sequences stand for … in GGGAAUGGAUCCACAUCUACGAAUUC…UUCACUGCAGACUUGACGAAGCUG
Method in brief: as §1

biotinyl-Met-oxazolone = experiment: self-aminoacylation, catalytic enhancement (BMO) (fold over background); higher = more active; k-Seq, kA / k0A0; sequences stand for … in GGGAAUGGAUCCACAUCUACGAAUUC…UUCACUGCAGACUUGACGAAGCUG
Method in brief: as §1

biotinyl-Leu-oxazolone = experiment: self-aminoacylation, catalytic enhancement (BLO) (fold over background); higher = more active; k-Seq, kA / k0A0; sequences stand for … in GGGAAUGGAUCCACAUCUACGAAUUC…UUCACUGCAGACUUGACGAAGCUG
Method in brief: as §1

biotinyl-Phe-oxazolone = experiment: self-aminoacylation, catalytic enhancement (BFO) (fold over background); higher = more active; k-Seq, kA / k0A0; sequences stand for … in GGGAAUGGAUCCACAUCUACGAAUUC…UUCACUGCAGACUUGACGAAGCUG
Method in brief: as §1

biotinyl-Trp-oxazolone = experiment: self-aminoacylation, catalytic enhancement (BWO) (fold over background); higher = more active; k-Seq, kA / k0A0; sequences stand for … in GGGAAUGGAUCCACAUCUACGAAUUC…UUCACUGCAGACUUGACGAAGCUG
Method in brief: as §1

Sequence	self-aminoacylation (biotinyl-Val-oxazolone)	self-aminoacylation (biotinyl-Ile-oxazolone)	self-aminoacylation (biotinyl-Met-oxazolone)	self-aminoacylation (biotinyl-Leu-oxazolone)	self-aminoacylation (biotinyl-Phe-oxazolone)	self-aminoacylation (biotinyl-Trp-oxazolone)
AUUACCCCGAUCAUCGAGUGA [Fam2.1 aminoacylation ribozyme variant]	3.77	3.39	7.24	7.03	27.4	7.71
AUUACCCCGGGCAUCGAGUGA [Fam2.1 aminoacylation ribozyme variant]	4.03	3.78	5.45	8.03	39.4	8.11
AUUACCCCGGUCAUCGAGUGA [Fam2.1 aminoacylation ribozyme variant]	3.2	2.93	5.35	5.4	27.9	6.34
AUUACCCCGGUCAUCGAGUUA [Fam2.1 aminoacylation ribozyme variant]	0.938	1.17	1.41	1.16	1.74	1.01
AUUACCCCGGUCAUCUAGUGA [Fam2.1 aminoacylation ribozyme variant]	3.96	4.31	7.8	8.24	47.1	8.95
AUUACCCCGGUCAUGGAGUGA [Fam2.1 aminoacylation ribozyme variant]	3.07	2.92	4.97	5.28	22.6	6.2
AUUACCCGGGACAUCGAGUGA [Fam2.1 aminoacylation ribozyme variant]	5.01	4.52	10.5	11.2	80.3	12.3
AUUACCCGGGCCAUCGAGUGA [Fam2.1 aminoacylation ribozyme variant]	5.47	4.18	8.49	10.1	41.7	8.23
AUUACCCGGGUCAUCCAGUGA [Fam2.1 aminoacylation ribozyme variant]	3.05	3.39	4.59	4.86	28.6	5.93
AUUACCCGGGUCAUCGAGCGA [Fam2.1 aminoacylation ribozyme variant]	2.18	2.08	1.97	2.22	1.09	1.55
AUUACCCGGGUCAUCGAGUGA [Fam2.1 aminoacylation ribozyme variant]	3.85	3.57	6.91	7.1	44.9	7.86
AUUACCCGGGUCAUCGGGUGA [Fam2.1 aminoacylation ribozyme variant]	7.9	6.62	13.9	14.7	132	12.4
AUUACCCGGGUCAUCGUGUGA [Fam2.1 aminoacylation ribozyme variant]	3.17	2.6	4.88	5.65	39	5.65
AUUACCCGGGUUAUCGAGUGA [Fam2.1 aminoacylation ribozyme variant]	5.94	5.68	13.3	14.4	94.5	14.6
AUUACCCGUGUCAUCGAGUGA [Fam2.1 aminoacylation ribozyme variant]	4.8	4.4	8.54	8.6	38.3	10.7
AUUACCCUAGGCAUCGAGUGA [Fam2.1 aminoacylation ribozyme variant]	2.68	2.47	5.3	5.37	18.1	6.47
AUUACCCUAGUCAUCGAGUGC [Fam2.1 aminoacylation ribozyme variant]	1.04	1.15	1.06	1.35	1.25	0.589
AUUACCCUAGUCAUCGUGUGA [Fam2.1 aminoacylation ribozyme variant]	1.29	1.25	2.4	2.17	5.35	2.89
AUUACCCUAGUCAUCUAGUGA [Fam2.1 aminoacylation ribozyme variant]	3.59	3.37	7.37	6.97	27.6	10.6
AUUACCCUCCUCAUCGAGUGA [Fam2.1 aminoacylation ribozyme variant]	2.08	1.81	3.98	3.99	15	4.74
AUUACCCUCGACAUCGAGUGA [Fam2.1 aminoacylation ribozyme variant]	5.56	4.58	11.5	12.7	83	14.5
AUUACCCUCGUCAACGAGUGA [Fam2.1 aminoacylation ribozyme variant]	2.06	1.89	3.05	3	5.53	2.82
AUUACCCUCGUCAUCGAGUAA [Fam2.1 aminoacylation ribozyme variant]	1.02	0.904	0.866	0.985	0.716	0.978
AUUACCCUCGUCAUCGCGUGA [Fam2.1 aminoacylation ribozyme variant]	4.02	3.63	6.01	6.51	51.9	6.81
AUUACCCUCGUGAUCGAGUGA [Fam2.1 aminoacylation ribozyme variant]	4.09	4.47	10.4	11.6	70.3	10.8
AUUACCCUGAACAUCGAGUGA [Fam2.1 aminoacylation ribozyme variant]	3.35	3.4	6.65	6.97	24.2	8.05

Sequence	self-aminoacylation (biotinyl-Val-oxazolone)	self-aminoacylation (biotinyl-Ile-oxazolone)	self-aminoacylation (biotinyl-Met-oxazolone)	self-aminoacylation (biotinyl-Leu-oxazolone)	self-aminoacylation (biotinyl-Phe-oxazolone)	self-aminoacylation (biotinyl-Trp-oxazolone)
AUUACCCUGAUCAUCCAGUGA [Fam2.1 aminoacylation ribozyme variant]	3.49	2.91	5.79	5.22	16.9	7.09
AUUACCCUGAUCAUCGAGUGG [Fam2.1 aminoacylation ribozyme variant]	1.62	1.52	2.82	2.42	2.77	2.13
AUUACCCUGAUCAUUGAGUGA [Fam2.1 aminoacylation ribozyme variant]	5.87	5.87	12.9	12.2	68.4	15.6
AUUACCCUGAUGAUCGAGUGA [Fam2.1 aminoacylation ribozyme variant]	5.25	5.5	12.7	13	79.7	14.4
AUUACCCUGCUCAUCCAGUGA [Fam2.1 aminoacylation ribozyme variant]	3.34	3.06	5.54	6.26	34.2	7.43
AUUACCCUGCUCAUCGAGCGA [Fam2.1 aminoacylation ribozyme variant]	0.851	1.12	1.3	1.4	0.874	0.81
AUUACCCUGCUCAUCGAGUCA [Fam2.1 aminoacylation ribozyme variant]	0.819	0.779	0.64	0.646	0.452	0.425
AUUACCCUGCUCAUCGCGUGA [Fam2.1 aminoacylation ribozyme variant]	7.29	7.11	17.1	16.4	152	16.9
AUUACCCUGCUCAUCUAGUGA [Fam2.1 aminoacylation ribozyme variant]	3.3	2.97	6.35	6.75	29.8	8.05
AUUACCCUGCUGAUCGAGUGA [Fam2.1 aminoacylation ribozyme variant]	1.67	1.93	2.68	2.87	10.4	2.77
AUUACCCUGGACAUCCAGUGA [Fam2.1 aminoacylation ribozyme variant]	2.51	2.61	3.32	3.82	15.9	4.13
AUUACCCUGGACAUCGACUGA [Fam2.1 aminoacylation ribozyme variant]	0.626	0.543	0.616	0.529	0.713	0.238
AUUACCCUGGACAUCGAGGGA [Fam2.1 aminoacylation ribozyme variant]	1.19	1.53	2.18	1.46	1.26	2.17
AUUACCCUGGACAUCGAUUGA [Fam2.1 aminoacylation ribozyme variant]	0.863	0.804	0.785	0.831	0.447	0.675
AUUACCCUGGACAUCUAGUGA [Fam2.1 aminoacylation ribozyme variant]	2.71	2.55	5.4	5.12	17	5.51
AUUACCCUGGCAAUCGAGUGA [Fam2.1 aminoacylation ribozyme variant]	3.02	2.78	4.83	5.38	28.2	5.92
AUUACCCUGGCCAGCGAGUGA [Fam2.1 aminoacylation ribozyme variant]	3.29	2.73	5	4.29	18	4.9
AUUACCCUGGCCAUCGAGAGA [Fam2.1 aminoacylation ribozyme variant]	1.01	0.69	1.02	0.919	0.439	0.803
AUUACCCUGGCCAUCGAGUCA [Fam2.1 aminoacylation ribozyme variant]	0.826	0.78	0.714	0.727	0.47	0.66
AUUACCCUGGCCAUCUAGUGA [Fam2.1 aminoacylation ribozyme variant]	2.79	2.93	4.68	5.69	28.6	4.43
AUUACCCUGGCCAUGGAGUGA [Fam2.1 aminoacylation ribozyme variant]	2.79	3.24	4.45	4.12	19.7	5.9
AUUACCCUGGCGAUCGAGUGA [Fam2.1 aminoacylation ribozyme variant]	2.69	2.12	4.06	4.77	24.3	4.59
AUUACCCUGGGCACCGAGUGA [Fam2.1 aminoacylation ribozyme variant]	2.84	3.37	6.11	6.68	37.9	5.46
AUUACCCUGGGCAUCCAGUGA [Fam2.1 aminoacylation ribozyme variant]	3.83	3.76	8.06	8.87	50.6	7.23
AUUACCCUGGGCAUCGAAUGA [Fam2.1 aminoacylation ribozyme variant]	0.934	0.945	0.647	0.912	1.14	2.01
